Results as given in patent US20250326826A1.

Experiments:
Assay in all cases: cell-based or functional assay
[1] = target: Human VEGF (dendritic cell assay) (human) (UniProt P15692)
[2] = target: VEGF (soluble stimulus added to cell cultures)
[3] = target: bFGF (soluble stimulus added to cell cultures)

Human VEGF (dendritic cell assay) (human), sequence (P15692 other isoform, or with tags, fused parts or gaps limits assumed): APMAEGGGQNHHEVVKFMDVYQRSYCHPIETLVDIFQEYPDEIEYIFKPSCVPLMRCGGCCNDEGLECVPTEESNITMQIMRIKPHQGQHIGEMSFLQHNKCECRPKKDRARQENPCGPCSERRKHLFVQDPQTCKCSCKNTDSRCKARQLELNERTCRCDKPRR

CD86 (MFI) on dendritic cells +VEGF +LPS, VHH 1 µg/mL [1]: 1980 MFI
CD86 (MFI) on dendritic cells +VEGF +LPS, VHH 5 µg/mL [1]: 2050 MFI
CD86 (MFI) on dendritic cells +VEGF +LPS, VHH 10 µg/mL [1]: 2000 MFI
MHCII (MFI) on dendritic cells +VEGF +LPS, VHH 1 µg/mL [1]: 5210 MFI
MHCII (MFI) on dendritic cells +VEGF +LPS, VHH 5 µg/mL [1]: 5140 MFI
MHCII (MFI) on dendritic cells +VEGF +LPS, VHH 10 µg/mL [1]: 4910 MFI
IC50, proliferation of HDMEC cells +VEGF (5 ng/ml) [2]: > 6 µM
PD1 expression (%) in CD8+ cells treated with VEGF, VHH 1 µg/mL [2]: 68%
PD1 expression (%) in CD8+ cells treated with VEGF, VHH 5 µg/mL [2]: 67%
PD1 expression (%) in CD8+ cells treated with VEGF, VHH 10 µg/mL [2]: 65%
average of nodes of the HDMEC network on Matrigel, VEGF 100 ng/mL, VHH 150 nM (nodes per field) [2]: 41
IC50, bFGF-induced proliferation of 3T3A31 cells [3]: > 250
IC50, bFGF-induced proliferation of A549 cells [3]: > 250
IC50, bFGF-induced proliferation of B16F10 cells [3]: > 250
IC50, bFGF-induced proliferation of NIH3T3 cells [3]: > 250
IC50, proliferation of HDMEC cells +bFGF (10 ng/ml) [3]: > 6 µM
average of nodes of the HDMEC network on Matrigel, bFGF 10 ng/mL, VHH 150 nM (nodes per field) [3]: 40
Substance: Nb-Neg (VHH)
